The supplement of paper PMC12338614
± gives the uncertainty stated by the source.

B1: library; numbered along this chain (parent)
chain: MEVVDPQQLGMFTEGELMSVGMDTFIHRIDSTEVIYQPRRKRAKLIGKYLMGDLLGEGSYGKVKEVLDSETLCRRAVKILKKKKLRRIPNGEANVKKEIQLLRRLRHKNVIQLVDVLYNEEKQKMYMVMEYCVCGMQEMLDSVPEKRFPVCQAHGYFCQLIDGLEYLHSQGIVHKDIKPGNLLLTTGGTLKISDLGVAEALHPFAADDTCRTSQGSPAFQPPEIANGLDTFSGFKVDIWSAGVTLYNITTGLYPFEGDNIYKLFENIGKGSYAIPGDCGPPLSDLLKGMLEYEPAKRFSIRQIRQHSWFRKKHPPAEAPVPIPPSPDTKDRWRSMTVVPYLEDLHGADEDEDLFDIEDDIIYTQDFTVPGQVPEEEASHNGQRRGLPKAVCMNGTEAAQLSTKSRAEGRAPNPARKACSASSKIRRLSACKQQ

Variants of: B1
Test: STK11 functional score (HeLa growth suppression), rescaled enrichment; synonymous median = 1, nonsense median = 0 (normalised score)
Conditions: with HeLa; variant type: missense
How it was run: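 HeLa cells carrying an AAVS1 landing pad received codon-optimised STK11 libraries made by codon randomisation (POPCode), integrated by Bxb1, with three regions each transfected three times. Integrants that were BFP-negative and mCherry-positive were sorted by FACS 4–5 days after electroporation and then grown for about two weeks. Tiled amplicons from gDNA were sequenced on NextSeq at ~2 million reads per tile. The functional score is a wild-type-corrected log ratio of post- to pre-selection counts, rescaled to the synonymous and nonsense medians, merged across codons and replicate transfections, and given a bootstrapped error.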

K262M was tested. Which STK11 functional score did it give?
Its STK11 functional score is 1.17 ± 0.86.

For H174A, which STK11 functional score is on record?
Its STK11 functional score is 0.322 ± 0.12.

T24A was tested. Which STK11 functional score did it give?
Its STK11 functional score is 1.36 ± 0.46.

How did the STK11 functional score turn out when Q382W was run?
The STK11 functional score was 1.06 ± 0.094.

How did the STK11 functional score turn out when N181R was run?
Its STK11 functional score is -0.0333 ± 0.096.

D258H was tested. Which STK11 functional score did it give?
Its STK11 functional score is 1.62 ± 0.55.

For E57D, which STK11 functional score is on record?
The STK11 functional score was 0.893 ± 0.15.

For C158R, which STK11 functional score is on record?
Its STK11 functional score is 1.49 ± 0.35.

Which STK11 functional score does the source give for H306G here?
Its STK11 functional score is 0.475 ± 0.077.

For A406Q, which STK11 functional score is on record?
The STK11 functional score was 1.56 ± 0.33.

How did the STK11 functional score turn out when K312Y was run?
The STK11 functional score was 1.2 ± 0.1.

With S271A as the variant, how does the STK11 functional score read?
Its STK11 functional score is 1.11 ± 0.31.

With E138W as the variant, how does the STK11 functional score read?
The STK11 functional score was 1.19 ± 0.16.

I224F was tested. Which STK11 functional score did it give?
Its STK11 functional score is 1.09 ± 0.23.

Which STK11 functional score does the source give for N412D here?
The STK11 functional score was 1.53 ± 0.32.

H345T was tested. Which STK11 functional score did it give?
The STK11 functional score was 1.57 ± 0.17.

E70L was tested. Which STK11 functional score did it give?
The STK11 functional score was 1.03 ± 0.32.

For D352W, which STK11 functional score is on record?
The STK11 functional score was 0.86 ± 0.64.

Which STK11 functional score does the source give for F148N here?
Its STK11 functional score is 0.0347 ± 0.095.

For Y272C, which STK11 functional score is on record?
The STK11 functional score was 1.13 ± 0.71.

How did the STK11 functional score turn out when F231T was run?
The STK11 functional score was 1.64 ± 0.39.

Which STK11 functional score does the source give for L201P here?
Its STK11 functional score is 1.36 ± 0.18.

With A417N as the variant, how does the STK11 functional score read?
Its STK11 functional score is 1.55 ± 0.18.

With K48P as the variant, how does the STK11 functional score read?
Its STK11 functional score is 1.41 ± 0.45.

With G56F as the variant, how does the STK11 functional score read?
Its STK11 functional score is 0.171 ± 0.08.

For H27P, which STK11 functional score is on record?
The STK11 functional score was 1.35 ± 0.35.

With E120F as the variant, how does the STK11 functional score read?
The STK11 functional score was 1.52 ± 0.4.

How did the STK11 functional score turn out when R384C was run?
Its STK11 functional score is 1.14 ± 0.5.

T13I was tested. Which STK11 functional score did it give?
Its STK11 functional score is 1.01 ± 0.37.

Y362G was tested. Which STK11 functional score did it give?
Its STK11 functional score is 1.15 ± 0.18.

For G408I, which STK11 functional score is on record?
Its STK11 functional score is 1.51 ± 0.14.

With H107S as the variant, how does the STK11 functional score read?
Its STK11 functional score is 0.803 ± 0.17.

Which STK11 functional score does the source give for A347V here?
Its STK11 functional score is 1.23 ± 0.32.

With Q305L as the variant, how does the STK11 functional score read?
The STK11 functional score was 1.6 ± 0.16.

With L101R as the variant, how does the STK11 functional score read?
The STK11 functional score was 1.25 ± 0.2.

Q302L was tested. Which STK11 functional score did it give?
The STK11 functional score was 1.45 ± 0.23.

Which STK11 functional score does the source give for M125W here?
The STK11 functional score was 1.25 ± 0.15.

With R301V as the variant, how does the STK11 functional score read?
The STK11 functional score was 1.62 ± 0.17.

With P217V as the variant, how does the STK11 functional score read?
Its STK11 functional score is 0.177 ± 0.36.

How did the STK11 functional score turn out when L290T was run?
Its STK11 functional score is 1.07 ± 0.45.

How did the STK11 functional score turn out when G251S was run?
The STK11 functional score was 1.01 ± 0.2.

H154A was tested. Which STK11 functional score did it give?
Its STK11 functional score is 1.49 ± 0.24.

Which STK11 functional score does the source give for P144L here?
The STK11 functional score was 0.658 ± 0.083.

For Q170D, which STK11 functional score is on record?
Its STK11 functional score is -0.0762 ± 0.095.

For E70S, which STK11 functional score is on record?
Its STK11 functional score is 0.896 ± 0.15.

For Q137Y, which STK11 functional score is on record?
The STK11 functional score was 0.779 ± 0.3.

How did the STK11 functional score turn out when T249A was run?
The STK11 functional score was 0.412 ± 0.66.

For A417P, which STK11 functional score is on record?
Its STK11 functional score is 1.2 ± 0.39.

How did the STK11 functional score turn out when P179W was run?
The STK11 functional score was 0.088 ± 0.11.

E342V was tested. Which STK11 functional score did it give?
The STK11 functional score was 1.46 ± 0.17.

With M51G as the variant, how does the STK11 functional score read?
The STK11 functional score was 1.1 ± 0.091.

For P314Q, which STK11 functional score is on record?
Its STK11 functional score is 1.17 ± 0.14.

For S419I, which STK11 functional score is on record?
Its STK11 functional score is 1.16 ± 0.27.

How did the STK11 functional score turn out when E121V was run?
The STK11 functional score was 1.41 ± 0.14.

Which STK11 functional score does the source give for P387E here?
The STK11 functional score was 1.6 ± 0.17.

With C132A as the variant, how does the STK11 functional score read?
Its STK11 functional score is 1.47 ± 0.32.

How did the STK11 functional score turn out when R28V was run?
The STK11 functional score was 1.03 ± 0.29.

Which STK11 functional score does the source give for E145D here?
The STK11 functional score was 1.11 ± 0.28.

With I99V as the variant, how does the STK11 functional score read?
Its STK11 functional score is 0.876 ± 0.11.

C151G was tested. Which STK11 functional score did it give?
The STK11 functional score was 0.587 ± 0.11.

S378A was tested. Which STK11 functional score did it give?
Its STK11 functional score is 1.44 ± 0.19.

With N90L as the variant, how does the STK11 functional score read?
The STK11 functional score was 1 ± 0.12.

Which STK11 functional score does the source give for F204Y here?
Its STK11 functional score is 0.593 ± 0.2.

For K97D, which STK11 functional score is on record?
Its STK11 functional score is 1.27 ± 0.21.

P294S was tested. Which STK11 functional score did it give?
The STK11 functional score was 0.67 ± 0.14.

Which STK11 functional score does the source give for S325L here?
Its STK11 functional score is 1.57 ± 0.25.

E65M was tested. Which STK11 functional score did it give?
Its STK11 functional score is 0.457 ± 0.078.

P326V was tested. Which STK11 functional score did it give?
The STK11 functional score was 0.813 ± 0.46.

K81A was tested. Which STK11 functional score did it give?
The STK11 functional score was 1.66 ± 0.18.

With A153V as the variant, how does the STK11 functional score read?
Its STK11 functional score is 0.499 ± 0.1.

With Q305K as the variant, how does the STK11 functional score read?
The STK11 functional score was 0.543 ± 0.25.

How did the STK11 functional score turn out when A377R was run?
The STK11 functional score was 1.6 ± 0.26.

K311N was tested. Which STK11 functional score did it give?
The STK11 functional score was 0.848 ± 0.47.

For I300V, which STK11 functional score is on record?
The STK11 functional score was 1.13 ± 0.28.

For S59N, which STK11 functional score is on record?
The STK11 functional score was 1.45 ± 0.2.

P411S was tested. Which STK11 functional score did it give?
The STK11 functional score was 1.23 ± 0.49.

Which STK11 functional score does the source give for L353G here?
The STK11 functional score was 1.52 ± 0.15.

For Q305A, which STK11 functional score is on record?
Its STK11 functional score is 1.33 ± 0.15.

Which STK11 functional score does the source give for E92Q here?
Its STK11 functional score is 1.16 ± 0.51.

L50T was tested. Which STK11 functional score did it give?
The STK11 functional score was 1.29 ± 0.23.

With L184C as the variant, how does the STK11 functional score read?
Its STK11 functional score is 0.804 ± 0.36.

How did the STK11 functional score turn out when G346P was run?
Its STK11 functional score is 1.61 ± 0.14.

With P280H as the variant, how does the STK11 functional score read?
Its STK11 functional score is 1.17 ± 0.16.
